Measurements as given in US20250277020A1 (Boehringer Ingelheim, published 2025).
Several values for one entry are separate records, joined by “and”; a condition that tells them apart may be missing. Equal values may be shown once. Values belong to the binder of their own block, whether it stands above or below them.

Legend:
[1] = target: T1, Human N-terminal fragment of CTGF (CTGF-NTF) (human, UniProt P29279 27-180); assay: SPR Biacore 8K+, mAb captured on Protein A/G, hCTGF NTF as analyte
T1 construct: Recombinantly expressed; also called hCTGF NTF; CTGF N-terminal fragment
T1 chain: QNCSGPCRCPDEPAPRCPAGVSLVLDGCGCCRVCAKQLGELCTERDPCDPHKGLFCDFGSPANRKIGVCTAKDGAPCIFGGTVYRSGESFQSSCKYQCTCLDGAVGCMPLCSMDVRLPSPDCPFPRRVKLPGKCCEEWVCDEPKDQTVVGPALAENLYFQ
Protocol: (§1) Binding affinity of anti-CTGF antibodies H1 (having the light chain of SEQ ID NO: 22 and the heavy chain of SEQ ID NO: 23), H2 (having the light chain of SEQ ID NO: 24 and the heavy chain of SEQ ID NO: 25), F1, and A97 for full length human CTGF or human CTGF N-terminal fragment are determined by surface plasmon resonance (SPR).
(§2) Surface plasmon resonance is conducted using a Biacore 8K+ (Cytiva). Protein A/G (Thermo Scientific) is amine coupled to CM5 Sensor S Chip (Cytiva). For binding to hCTGF N-terminal fragment (NTF), anti-CTGF antibody (1 μg/ml) is captured on the Protein A/G surface, followed by various concentrations of antigen (100 nM to 0.78 nM; 2-fold dilutions). For binding to hCTGF full length, anti-CTGF antibody (0.2 μg/ml) is captured followed by various concentrations of antigen (10 nM to 0.156 nM; 2-fold dilutions).

Full-length human CTGF [2] = target: T2, Full-length human CTGF (human, UniProt P29279 27-349); assay: SPR Biacore 8K+, mAb captured on Protein A/G, full length hCTGF as analyte
T2 construct: Corresponds to NCBI NP_001892.1 with the signal peptide omitted; purchased from R&D Systems; also called hCTGF full length; full length CTGF
T2 sequence: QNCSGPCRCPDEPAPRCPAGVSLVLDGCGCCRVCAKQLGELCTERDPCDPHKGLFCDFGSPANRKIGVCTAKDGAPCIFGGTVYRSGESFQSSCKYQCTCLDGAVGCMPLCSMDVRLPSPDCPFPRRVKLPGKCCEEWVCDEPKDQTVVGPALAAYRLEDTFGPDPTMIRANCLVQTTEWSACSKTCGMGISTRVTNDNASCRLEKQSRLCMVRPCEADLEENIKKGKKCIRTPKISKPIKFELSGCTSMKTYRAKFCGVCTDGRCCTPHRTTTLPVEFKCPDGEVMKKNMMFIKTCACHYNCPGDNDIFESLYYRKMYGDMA
Protocol: as §1, §2

Full-length human CTGF [3] = target: T2, Full-length human CTGF; assay: SPR, full length CTGF
Full-length human CTGF [4] = target: T2, Full-length human CTGF; assay: SPR, full length CTGF; Table 15 screen of humanized variants, SPR on full length CTGF
Summary of the method: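 Humanized antibody variants were made by co-expressing each of eight heavy-chain variable-region variants with each of sixteen light-chain variable-region variants in CHO cells, giving 128 combinations. Binding affinity (Kd) of each combination for full-length human CTGF was determined by surface plasmon resonance. The text gives no instrument, chip, concentrations, temperature, buffer, replicates or fitting model for this measurement.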

B2: A111 (antibody, human IgG1, kappa, L234A L235A)
light: DIVMTQTPLSLSVSLGDQASISCKSSQSIVHYNGNTYLEWYLQKPGQSPQLLIYKVSSRASGVPDRFSGSGSGTDFTLKISRVEAEDLGVYYCFQGSHFPLTFGQGTKLEIKRTVAAPSVFIFPPSDEQLKSGTASVVCLLNNFYPREAKVQWKVDNALQSGNSQESVTEQDSKDSTYSLSSTLTLSKADYEKHKVYACEVTHQGLSSPVTKSFNRGEC
heavy: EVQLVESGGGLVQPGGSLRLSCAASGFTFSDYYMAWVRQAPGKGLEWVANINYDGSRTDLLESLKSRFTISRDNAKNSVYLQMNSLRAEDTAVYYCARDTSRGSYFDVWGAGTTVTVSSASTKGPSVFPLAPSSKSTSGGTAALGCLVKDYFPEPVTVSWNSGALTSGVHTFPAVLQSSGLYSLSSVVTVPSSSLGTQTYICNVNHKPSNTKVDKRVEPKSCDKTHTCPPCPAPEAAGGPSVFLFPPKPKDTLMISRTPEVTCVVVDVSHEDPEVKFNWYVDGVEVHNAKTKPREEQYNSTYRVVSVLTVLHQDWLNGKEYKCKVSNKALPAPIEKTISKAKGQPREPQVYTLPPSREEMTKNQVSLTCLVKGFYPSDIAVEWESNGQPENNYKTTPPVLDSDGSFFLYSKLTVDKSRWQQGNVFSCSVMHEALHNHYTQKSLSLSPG
Kd (Full-length human CTGF [3]): 0.51 nM

B3: A112 (antibody, human IgG1, kappa, L234A L235A)
light: DIVMTQTPLSLSVSLGDQASISCKSSQSIVHYNGNTYLEWYLQKPGQSPQLLIYKVSSRASGVPDRFSGSGSGTDFTLKISRVEAEDLGVYYCFQGSHFPLTFGQGTKLEIKRTVAAPSVFIFPPSDEQLKSGTASVVCLLNNFYPREAKVQWKVDNALQSGNSQESVTEQDSKDSTYSLSSTLTLSKADYEKHKVYACEVTHQGLSSPVTKSFNRGEC
heavy: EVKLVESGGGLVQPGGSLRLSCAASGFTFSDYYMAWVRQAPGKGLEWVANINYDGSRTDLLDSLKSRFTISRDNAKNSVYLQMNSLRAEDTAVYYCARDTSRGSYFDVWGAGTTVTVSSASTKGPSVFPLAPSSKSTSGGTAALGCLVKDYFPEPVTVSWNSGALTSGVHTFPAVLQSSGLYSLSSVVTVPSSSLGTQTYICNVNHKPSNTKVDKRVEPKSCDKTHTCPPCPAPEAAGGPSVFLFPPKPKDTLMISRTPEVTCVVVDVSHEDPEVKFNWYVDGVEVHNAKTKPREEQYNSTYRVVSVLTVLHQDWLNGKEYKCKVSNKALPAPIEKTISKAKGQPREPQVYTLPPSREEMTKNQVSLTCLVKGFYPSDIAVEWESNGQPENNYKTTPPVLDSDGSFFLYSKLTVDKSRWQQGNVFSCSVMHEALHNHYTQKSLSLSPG
Kd (Full-length human CTGF [3]): 0.48 nM

B5: A116 (antibody, human IgG1, kappa, L234A L235A)
light: DIVMTQTPLSLSVSLGDQASISCKSSQSIVHYNEKTYLEWYLQKPGQSPQLLIYKVSSRASGVPDRFSGSGSGTDFTLKISRVEAEDLGVYYCFQGSHFPLTFGQGTKLEIKRTVAAPSVFIFPPSDEQLKSGTASVVCLLNNFYPREAKVQWKVDNALQSGNSQESVTEQDSKDSTYSLSSTLTLSKADYEKHKVYACEVTHQGLSSPVTKSFNRGEC
heavy: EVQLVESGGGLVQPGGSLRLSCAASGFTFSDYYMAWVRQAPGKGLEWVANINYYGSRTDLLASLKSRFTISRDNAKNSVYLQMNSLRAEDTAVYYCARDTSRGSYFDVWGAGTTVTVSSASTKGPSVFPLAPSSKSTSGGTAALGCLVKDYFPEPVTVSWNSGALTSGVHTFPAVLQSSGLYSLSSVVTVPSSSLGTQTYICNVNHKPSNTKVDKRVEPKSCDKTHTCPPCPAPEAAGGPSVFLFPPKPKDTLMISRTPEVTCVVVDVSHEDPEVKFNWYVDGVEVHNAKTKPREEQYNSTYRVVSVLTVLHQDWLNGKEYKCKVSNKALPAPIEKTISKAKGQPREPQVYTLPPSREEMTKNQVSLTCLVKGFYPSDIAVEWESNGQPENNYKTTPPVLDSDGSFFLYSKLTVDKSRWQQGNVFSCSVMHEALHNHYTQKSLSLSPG
Kd (Full-length human CTGF [3]): 0.69 nM

B6: A119 (antibody, human IgG1, kappa, L234A L235A)
light: DIVMTQTPLSLSVSLGDQASISCKSSQSIVHYNEKTYLEWYLQKPGQSPQLLIYKVSSRASGVPDRFSGSGSGTDFTLKISRVEAEDLGVYYCFQGSHFPLTFGQGTKLEIKRTVAAPSVFIFPPSDEQLKSGTASVVCLLNNFYPREAKVQWKVDNALQSGNSQESVTEQDSKDSTYSLSSTLTLSKADYEKHKVYACEVTHQGLSSPVTKSFNRGEC
heavy: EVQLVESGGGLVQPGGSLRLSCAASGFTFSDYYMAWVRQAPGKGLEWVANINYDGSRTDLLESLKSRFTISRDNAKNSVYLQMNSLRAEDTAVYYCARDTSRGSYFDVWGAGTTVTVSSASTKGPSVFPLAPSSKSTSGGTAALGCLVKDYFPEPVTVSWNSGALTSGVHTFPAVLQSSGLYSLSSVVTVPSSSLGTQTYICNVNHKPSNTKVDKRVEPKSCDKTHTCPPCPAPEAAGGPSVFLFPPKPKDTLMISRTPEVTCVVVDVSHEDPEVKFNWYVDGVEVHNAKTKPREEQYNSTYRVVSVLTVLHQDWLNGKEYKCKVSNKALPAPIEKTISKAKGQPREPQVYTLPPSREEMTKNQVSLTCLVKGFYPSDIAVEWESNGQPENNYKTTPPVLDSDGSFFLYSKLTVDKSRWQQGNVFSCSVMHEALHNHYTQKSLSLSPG
Kd (Full-length human CTGF [3]): 0.91 nM

B7: A115 (antibody, human IgG1, kappa, L234A L235A)
light: DIVMTQTPLSLSVSLGDQASISCKSSQSIVHYNEKTYLEWYLQKPGQSPQLLIYKVSSRASGVPDRFSGSGSGTDFTLKISRVEAEDLGVYYCFQGSHFPLTFGQGTKLEIKRTVAAPSVFIFPPSDEQLKSGTASVVCLLNNFYPREAKVQWKVDNALQSGNSQESVTEQDSKDSTYSLSSTLTLSKADYEKHKVYACEVTHQGLSSPVTKSFNRGEC
heavy: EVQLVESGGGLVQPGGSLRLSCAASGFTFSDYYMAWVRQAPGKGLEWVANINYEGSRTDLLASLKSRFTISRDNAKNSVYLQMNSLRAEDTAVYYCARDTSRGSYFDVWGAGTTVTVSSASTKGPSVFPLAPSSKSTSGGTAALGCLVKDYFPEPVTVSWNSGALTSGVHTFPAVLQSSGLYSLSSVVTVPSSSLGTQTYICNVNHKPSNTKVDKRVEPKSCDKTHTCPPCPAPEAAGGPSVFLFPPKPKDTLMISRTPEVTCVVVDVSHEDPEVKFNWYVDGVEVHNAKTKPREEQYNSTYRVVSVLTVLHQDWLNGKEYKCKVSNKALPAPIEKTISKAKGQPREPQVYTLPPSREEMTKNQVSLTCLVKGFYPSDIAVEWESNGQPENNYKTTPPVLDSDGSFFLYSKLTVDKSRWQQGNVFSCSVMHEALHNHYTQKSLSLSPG
Kd (Full-length human CTGF [3]): 0.66 nM

B8: A118 (antibody, human IgG1, kappa, L234A L235A)
light: DIVMTQTPLSLSVSLGDQASISCKSSQSIVHYNEKTYLEWYLQKPGQSPQLLIYKVSSRASGVPDRFSGSGSGTDFTLKISRVEAEDLGVYYCFQGSHFPLTFGQGTKLEIKRTVAAPSVFIFPPSDEQLKSGTASVVCLLNNFYPREAKVQWKVDNALQSGNSQESVTEQDSKDSTYSLSSTLTLSKADYEKHKVYACEVTHQGLSSPVTKSFNRGEC
heavy: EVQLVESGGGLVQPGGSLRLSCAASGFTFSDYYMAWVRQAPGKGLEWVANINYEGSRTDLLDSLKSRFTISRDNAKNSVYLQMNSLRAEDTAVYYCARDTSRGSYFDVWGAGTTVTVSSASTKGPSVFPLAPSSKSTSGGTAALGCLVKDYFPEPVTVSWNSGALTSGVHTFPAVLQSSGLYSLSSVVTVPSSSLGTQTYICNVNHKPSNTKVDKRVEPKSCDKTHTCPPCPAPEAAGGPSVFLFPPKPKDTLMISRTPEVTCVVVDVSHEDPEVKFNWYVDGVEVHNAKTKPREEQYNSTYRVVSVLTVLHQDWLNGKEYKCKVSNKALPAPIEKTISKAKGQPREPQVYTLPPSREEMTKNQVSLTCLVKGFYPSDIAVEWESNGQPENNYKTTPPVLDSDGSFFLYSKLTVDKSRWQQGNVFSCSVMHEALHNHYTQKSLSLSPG
Kd (Full-length human CTGF [3]): 0.81 nM

B9: A113 (antibody, human IgG1, kappa, L234A L235A)
light: DIVMTQTPLSLSVSLGDQASISCKSSQSIVHYNEKTYLEWYLQKPGQSPQLLIYKVSSRASGVPDRFSGSGSGTDFTLKISRVEAEDLGVYYCFQGSHFPLTFGQGTKLEIKRTVAAPSVFIFPPSDEQLKSGTASVVCLLNNFYPREAKVQWKVDNALQSGNSQESVTEQDSKDSTYSLSSTLTLSKADYEKHKVYACEVTHQGLSSPVTKSFNRGEC
heavy: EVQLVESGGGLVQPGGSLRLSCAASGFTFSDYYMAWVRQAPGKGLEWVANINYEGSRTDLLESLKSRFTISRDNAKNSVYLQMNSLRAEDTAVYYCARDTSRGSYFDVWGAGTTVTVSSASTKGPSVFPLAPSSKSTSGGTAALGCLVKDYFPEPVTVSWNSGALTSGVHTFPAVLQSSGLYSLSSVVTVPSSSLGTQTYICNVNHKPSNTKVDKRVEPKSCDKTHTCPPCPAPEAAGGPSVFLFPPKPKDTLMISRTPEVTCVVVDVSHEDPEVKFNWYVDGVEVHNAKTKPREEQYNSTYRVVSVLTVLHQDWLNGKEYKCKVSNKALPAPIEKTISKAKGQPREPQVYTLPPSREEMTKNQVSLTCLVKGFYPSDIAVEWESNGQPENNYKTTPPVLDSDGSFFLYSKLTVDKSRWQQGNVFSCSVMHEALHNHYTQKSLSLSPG
Kd (Full-length human CTGF [3]): 0.76 nM

B10: A117 (antibody, human IgG1, kappa, L234A L235A)
light: DIVMTQTPLSLSVSLGDQASISCKSSQSIVHYNEKTYLEWYLQKPGQSPQLLIYKVSSRASGVPDRFSGSGSGTDFTLKISRVEAEDLGVYYCFQGSHFPLTFGQGTKLEIKRTVAAPSVFIFPPSDEQLKSGTASVVCLLNNFYPREAKVQWKVDNALQSGNSQESVTEQDSKDSTYSLSSTLTLSKADYEKHKVYACEVTHQGLSSPVTKSFNRGEC
heavy: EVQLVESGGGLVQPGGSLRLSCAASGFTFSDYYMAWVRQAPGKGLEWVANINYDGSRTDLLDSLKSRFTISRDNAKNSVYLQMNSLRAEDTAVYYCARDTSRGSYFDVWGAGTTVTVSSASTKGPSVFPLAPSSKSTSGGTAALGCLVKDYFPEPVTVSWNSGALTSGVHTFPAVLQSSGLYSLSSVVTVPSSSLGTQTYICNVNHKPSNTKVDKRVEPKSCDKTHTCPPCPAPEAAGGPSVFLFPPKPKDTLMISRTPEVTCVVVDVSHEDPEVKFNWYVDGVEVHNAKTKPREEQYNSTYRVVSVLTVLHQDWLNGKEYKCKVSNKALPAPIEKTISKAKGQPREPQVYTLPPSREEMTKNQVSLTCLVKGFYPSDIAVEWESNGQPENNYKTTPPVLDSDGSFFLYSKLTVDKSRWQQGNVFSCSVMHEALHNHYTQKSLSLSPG
Kd (Full-length human CTGF [3]): 0.81 nM

B11: A114 (antibody, human IgG1, kappa, L234A L235A)
light: DIVMTQTPLSLSVSLGDQASISCKSSQSIVHYNEKTYLEWYLQKPGQSPQLLIYKVSSRASGVPDRFSGSGSGTDFTLKISRVEAEDLGVYYCFQGSHFPLTFGQGTKLEIKRTVAAPSVFIFPPSDEQLKSGTASVVCLLNNFYPREAKVQWKVDNALQSGNSQESVTEQDSKDSTYSLSSTLTLSKADYEKHKVYACEVTHQGLSSPVTKSFNRGEC
heavy: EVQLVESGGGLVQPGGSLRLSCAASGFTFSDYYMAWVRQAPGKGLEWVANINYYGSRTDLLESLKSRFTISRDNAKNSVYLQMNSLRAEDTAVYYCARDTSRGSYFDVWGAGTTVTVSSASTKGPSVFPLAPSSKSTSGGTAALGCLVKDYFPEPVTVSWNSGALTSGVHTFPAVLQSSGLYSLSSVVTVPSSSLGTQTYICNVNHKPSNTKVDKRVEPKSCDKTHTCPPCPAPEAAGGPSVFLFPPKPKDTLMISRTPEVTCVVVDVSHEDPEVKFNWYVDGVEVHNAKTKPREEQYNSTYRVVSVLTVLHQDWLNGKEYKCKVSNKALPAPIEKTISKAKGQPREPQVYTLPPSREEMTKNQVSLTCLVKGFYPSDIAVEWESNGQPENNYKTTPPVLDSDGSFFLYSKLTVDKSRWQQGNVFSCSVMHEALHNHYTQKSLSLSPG
Kd (Full-length human CTGF [3]): 0.75 nM

B14: A13 (antibody, human IgG1, kappa, L234A L235A)
light: VVMTQTPLSLSVSLGDQASISCKSSQSIVHYNEKTYLEWYLQKPGQSPQLLIYKVSSRASGVPDRFSGSGSGTDFTLKISRVEAEDLGVYYCFQGSHFPLTFGQGTKLEIKRTVAAPSVFIFPPSDEQLKSGTASVVCLLNNFYPREAKVQWKVDNALQSGNSQESVTEQDSKDSTYSLSSTLTLSKADYEKHKVYACEVTHQGLSSPVTKSFNRGEC
heavy: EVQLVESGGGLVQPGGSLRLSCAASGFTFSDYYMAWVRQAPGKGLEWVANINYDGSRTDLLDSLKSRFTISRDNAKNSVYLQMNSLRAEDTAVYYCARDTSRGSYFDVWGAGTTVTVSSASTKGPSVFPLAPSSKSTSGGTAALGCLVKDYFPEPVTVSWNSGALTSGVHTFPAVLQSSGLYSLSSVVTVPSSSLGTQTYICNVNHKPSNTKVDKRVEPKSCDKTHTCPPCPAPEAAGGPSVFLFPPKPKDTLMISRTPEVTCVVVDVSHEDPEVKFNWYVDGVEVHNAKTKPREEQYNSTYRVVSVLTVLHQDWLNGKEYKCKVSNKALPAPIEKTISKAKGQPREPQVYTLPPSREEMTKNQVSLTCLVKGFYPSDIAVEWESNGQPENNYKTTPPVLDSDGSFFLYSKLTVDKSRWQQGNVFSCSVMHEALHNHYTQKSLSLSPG
notes: also called antibody A13
Kd (Full-length human CTGF [3]): 0.25 nM

More lines, now with the values ahead:

Kd [1]: 30.3 nM and 30 nM
koff [1]: 0.0105 s⁻¹
kon [1]: 345000 M⁻¹ s⁻¹
Kd (Full-length human CTGF [2]): 0.247 nM and 0.25 nM
koff (Full-length human CTGF [2]): 0.00337 s⁻¹
kon (Full-length human CTGF [2]): 1.37e+07 M⁻¹ s⁻¹
B1: Antibody F1 (antibody, V domains shown)
VH: EGQLVQSGGGLVHPGGSLRLSCAGSGFTFSSYGMHWVRQAPGKGLEWVSGIGTGGGTYSTDSVKGRFTISRDNAKNSLYLQMNSLRAEDMAVYYCARGDYYGSGSFFDCWGQGTLVTVSS
VL: DIQMTQSPSSLSASVGDRVTITCRASQGISSWLAWYQQKPEKAPKSLIYAASSLQSGVPSRFSGSGSGTDFTLTISSLQPEDFATYYCQQYNSYPPTFGQGTKLEIKR
notes: Comparator anti-CTGF antibody, full length

Kd (Full-length human CTGF [3]): 0.84 nM
B4: A120 (antibody, human IgG1, kappa, L234A L235A)
light: DIVMTQTPLSLSVSLGDQASISCKSSQSIVHYNEKTYLEWYLQKPGQSPQLLIYKVSSRASGVPDRFSGSGSGTDFTLKISRVEAEDLGVYYCFQGSHFPLTFGQGTKLEIKRTVAAPSVFIFPPSDEQLKSGTASVVCLLNNFYPREAKVQWKVDNALQSGNSQESVTEQDSKDSTYSLSSTLTLSKADYEKHKVYACEVTHQGLSSPVTKSFNRGEC
heavy: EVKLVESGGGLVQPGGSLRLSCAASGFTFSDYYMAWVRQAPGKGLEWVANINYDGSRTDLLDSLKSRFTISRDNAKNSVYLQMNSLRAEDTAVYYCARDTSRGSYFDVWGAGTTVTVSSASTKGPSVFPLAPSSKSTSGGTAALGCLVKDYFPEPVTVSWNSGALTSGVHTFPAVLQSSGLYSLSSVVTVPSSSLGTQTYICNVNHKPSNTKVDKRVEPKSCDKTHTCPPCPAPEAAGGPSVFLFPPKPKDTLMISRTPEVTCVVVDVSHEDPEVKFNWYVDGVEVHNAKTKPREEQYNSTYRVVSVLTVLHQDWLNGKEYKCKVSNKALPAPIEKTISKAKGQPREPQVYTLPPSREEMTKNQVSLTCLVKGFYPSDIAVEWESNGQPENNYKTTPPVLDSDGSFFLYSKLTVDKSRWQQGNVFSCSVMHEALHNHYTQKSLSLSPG

Kd [1]: 45.7 nM and 46 nM
koff [1]: 0.0175 s⁻¹
kon [1]: 383000 M⁻¹ s⁻¹
Kd (Full-length human CTGF [2]): 0.554 nM and 0.55 nM
koff (Full-length human CTGF [2]): 0.00149 s⁻¹
kon (Full-length human CTGF [2]): 2.7e+06 M⁻¹ s⁻¹
B12: Antibody H2 (antibody, human IgG1, kappa, V domains shown)
VH: EVQLVESGGGLVQPGGSLRLSCAASGFSFNTYAMNWVRQAPGKGLEWVARIRTKSNNYATYYADSVKDRFTISRDDSESSLYLQMNSLKTEDTAVYYCVETGFAYWDQGTLVTVSS
VL: EIVLTQSPATLSLSPGERATLSCSASSSVSYMHWFQQKPGQSPKLWIYSTSNLASGVPARFSGSGSGTDYTLTISSLEPEDFAVYYCQQRSSYPLTFGQGTKLEIKR
notes: as for B1

Kd [1]: 0.14 nM
koff [1]: 4e-05 s⁻¹
kon [1]: 290000 M⁻¹ s⁻¹
Kd (Full-length human CTGF [2]): 0.0018 nM
koff (Full-length human CTGF [2]): 4.8e-06 s⁻¹
kon (Full-length human CTGF [2]): 2.7e+06 M⁻¹ s⁻¹
Kd (Full-length human CTGF [4]): 0.14 nM
B13: Antibody A97 (antibody, human IgG1, kappa, L234A L235A)
light: VVMTQTPLSLSVSLGDQASISCKSSQSIVHYNGNTYLEWYLQKPGQSPQLLIYKVSSRASGVPDRFSGSGSGTDFTLKISRVEAEDLGVYYCFQGSHFPLTFGQGTKLEIKRTVAAPSVFIFPPSDEQLKSGTASVVCLLNNFYPREAKVQWKVDNALQSGNSQESVTEQDSKDSTYSLSSTLTLSKADYEKHKVYACEVTHQGLSSPVTKSFNRGEC
heavy: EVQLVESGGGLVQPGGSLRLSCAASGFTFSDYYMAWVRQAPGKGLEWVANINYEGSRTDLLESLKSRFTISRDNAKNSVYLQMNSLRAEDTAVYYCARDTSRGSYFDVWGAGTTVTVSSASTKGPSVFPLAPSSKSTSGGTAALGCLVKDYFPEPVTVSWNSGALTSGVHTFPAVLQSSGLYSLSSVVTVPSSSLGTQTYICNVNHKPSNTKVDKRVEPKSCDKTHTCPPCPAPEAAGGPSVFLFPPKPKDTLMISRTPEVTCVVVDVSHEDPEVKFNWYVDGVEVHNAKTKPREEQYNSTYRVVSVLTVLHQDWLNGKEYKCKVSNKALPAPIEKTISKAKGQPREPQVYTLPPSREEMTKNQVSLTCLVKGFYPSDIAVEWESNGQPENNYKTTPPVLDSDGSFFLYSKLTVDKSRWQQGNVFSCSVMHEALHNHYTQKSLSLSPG
notes: also called Antibody 97

Kd [1]: 8.82 nM and 8.8 nM
koff [1]: 0.0107 s⁻¹
kon [1]: 1.22e+06 M⁻¹ s⁻¹
Kd (Full-length human CTGF [2]): 0.0983 nM and 0.098 nM
koff (Full-length human CTGF [2]): 0.000671 s⁻¹
kon (Full-length human CTGF [2]): 6.83e+06 M⁻¹ s⁻¹
B15: Antibody H1 (antibody, human IgG1, lambda, V domains shown)
VH: EVTLKESGPVLVKPTETLTLTCTVSGFSLSTFGVHWIRQPPGKGLEWLGVIWRRGGTDYNAAFMSRLTISKDTSKSQVVFTMTNMDPVDTATYYCARDGGFDYWGQGTTVTVSS
VL: ETVVTQEPSLTVSPGGTVTLTCRSSIGAVTTSNYANWVQQKPGQAFRGLIGGTSNRAPWTPARFSGSLLGGKAALTLSGVQPEDEAEYYCALWYSTHYVFGGGTKLTVLG
notes: as for B1
